Data on four molecules can be found in paper PMC7383930 (Journal of Medicinal Chemistry, 2020).

Sequences and labels used below:
B1: NB13 (VHH)
VHH: QVQLQESGGGSVQTGGSLRLSCAASGYTASFSWIGYFRQAPGKEREGVAVINVGVGSTYYADSVKGRFTISRDNTENTISLEMNSLKPEDTGLYYCAGSLRWSRPPNPISEDAYNYWGQGTQVTVSS
B2: NB37 (VHH)
VHH: QVQLQESGGGSVEAGGSLRLSCARSGWPYSTYSMNWFRQAPGKEREAVAGISSTMSGIIFAESKAGQFTISQDNAKNTVYLQMNNLKPEDTAIYYCAARRDYSLSSSSDDFDYWGQGTQVTVSS
B3: NB8 (VHH)
VHH: B2 VHH with E13Q
B4: NB7 (VHH)
VHH: QVQLQESGGGSVQAGGSLRLSCTAPGYTDSNYYMSWFRQAPGKEREWVAGVNTGRGSTSYADSVKGRFTISQDNAKNTMFLQMNSLKPEDTAIYYCAVAACHFCDSLPKTQDEYILWGQGTQVTVSS

Substitutions are numbered along the chain they refer to.

The target of one experiment is PSMA on PC3-PIP (PSMA+) prostate cancer cells (Homo sapiens, UniProt Q04609). Nature of the experiment: cell-based or functional assay.
PSMA on PC3-PIP (PSMA+) prostate cancer cells, sequence (Q04609 whole entry): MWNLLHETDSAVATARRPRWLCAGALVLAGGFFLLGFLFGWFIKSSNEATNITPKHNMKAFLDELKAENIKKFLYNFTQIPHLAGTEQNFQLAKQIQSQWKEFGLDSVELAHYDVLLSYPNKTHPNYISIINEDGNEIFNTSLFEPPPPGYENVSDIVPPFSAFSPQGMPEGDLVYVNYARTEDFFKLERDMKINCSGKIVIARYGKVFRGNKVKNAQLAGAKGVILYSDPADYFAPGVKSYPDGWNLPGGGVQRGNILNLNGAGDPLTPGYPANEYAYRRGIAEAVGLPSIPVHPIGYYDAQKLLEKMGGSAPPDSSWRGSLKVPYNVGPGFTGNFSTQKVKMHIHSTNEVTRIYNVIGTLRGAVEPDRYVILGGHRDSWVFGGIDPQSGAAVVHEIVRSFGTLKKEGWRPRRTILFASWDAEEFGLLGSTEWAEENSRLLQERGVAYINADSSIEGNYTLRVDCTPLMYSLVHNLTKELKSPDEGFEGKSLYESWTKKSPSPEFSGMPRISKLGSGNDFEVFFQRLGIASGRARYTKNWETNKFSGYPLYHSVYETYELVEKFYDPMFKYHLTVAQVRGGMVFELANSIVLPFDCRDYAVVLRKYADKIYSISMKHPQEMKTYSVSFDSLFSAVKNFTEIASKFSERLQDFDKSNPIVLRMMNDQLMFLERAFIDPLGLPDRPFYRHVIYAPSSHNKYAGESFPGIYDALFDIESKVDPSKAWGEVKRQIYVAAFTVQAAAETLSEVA
Conditions: not given
With B1, the “whole-body NIR imaging of mice with PC3-PIP xenografts, AF680-labelled NB: duration until the fluorescent signal was no longer detected” value came to 32 h.

Regarding B2, the “whole-body NIR imaging of mice with PC3-PIP xenografts, AF680-labelled NB: duration until the fluorescent signal was no longer detected” value was found to be 24 h.

For B3, the “whole-body NIR imaging of mice with PC3-PIP xenografts, AF680-labelled NB: duration until the fluorescent signal was no longer detected” value was found to be 32 h.

In the next experiment the target is purified extracellular domain of PSMA (prostate-specific membrane antigen), residues 44–750 (human, UniProt Q04609). Nature of the experiment: SPR; ProteOn XPR36 chip; each NB (0.2 μg) immobilised by amine coupling (sulfo-NHS/EDC, 10 mM sodium acetate pH 5.0); soluble PSMA flowed at 25 μL/min (25-3200 pM for NB7; 2.94-47.00 nM for NB8, NB13, NB37); dissociation in PBST (0.005% Tween); BSA surface subtracted; Langmuir 1:1 kinetic model; 25 °C. To be noted: both partners purified. On the technique in general: Surface plasmon resonance follows binding to a sensor surface in real time, without labels.
purified extracellular domain of PSMA (prostate-specific membrane antigen), residues 44–750, sequence (Q04609 44-750): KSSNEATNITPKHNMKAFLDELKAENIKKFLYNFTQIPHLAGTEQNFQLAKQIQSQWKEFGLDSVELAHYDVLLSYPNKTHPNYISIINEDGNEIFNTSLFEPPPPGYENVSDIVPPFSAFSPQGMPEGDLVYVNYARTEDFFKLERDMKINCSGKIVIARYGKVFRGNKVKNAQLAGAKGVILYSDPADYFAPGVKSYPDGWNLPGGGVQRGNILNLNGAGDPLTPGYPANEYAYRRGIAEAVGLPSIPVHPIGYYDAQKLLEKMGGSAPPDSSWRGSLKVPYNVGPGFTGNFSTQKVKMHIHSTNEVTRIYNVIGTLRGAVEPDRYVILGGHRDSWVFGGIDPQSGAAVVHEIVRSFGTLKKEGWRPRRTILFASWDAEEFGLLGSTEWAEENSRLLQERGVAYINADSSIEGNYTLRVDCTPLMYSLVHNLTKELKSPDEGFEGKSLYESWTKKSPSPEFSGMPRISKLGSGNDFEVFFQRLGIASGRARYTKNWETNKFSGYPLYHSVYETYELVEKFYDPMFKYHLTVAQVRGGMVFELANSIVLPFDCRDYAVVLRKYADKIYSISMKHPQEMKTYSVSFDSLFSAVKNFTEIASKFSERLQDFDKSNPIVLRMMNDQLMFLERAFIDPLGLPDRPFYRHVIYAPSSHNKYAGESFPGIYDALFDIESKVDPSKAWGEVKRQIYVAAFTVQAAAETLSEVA
What is called Kd is the constant that tells how readily two partners part at equilibrium. High values mean lower affinity, low ones higher affinity. What is called koff is the rate constant with which the complex falls apart. A lower koff goes with a long-lived complex. What is called kon is the second-order rate constant of association. On to B1, for which the equilibrium dissociation constant (Kd) came to 0.6 nM, the koff was found to be 2.2e-05 s⁻¹ and the on-rate constant (kon) amounted to 36000 M⁻¹ s⁻¹.

The molecule B4 showed a Kd of 0.055 nM, a koff of 3.9e-05 s⁻¹ and a kon of 710000 M⁻¹ s⁻¹.

Take B2: the Kd stood at 3.4 nM, the koff turned out to be 7.5e-05 s⁻¹ and the kon worked out at 22000 M⁻¹ s⁻¹.

B3 yielded a Kd of 6 nM, a koff of 0.00012 s⁻¹ and a kon of 20000 M⁻¹ s⁻¹.
